7 molecules from patent US20210188980A1 can be followed below.

The target in the assay is cynomolgus LAG-3 ECD/Fc fusion protein (cynomolgus monkey). Description: ELISA, coated cynoLAG-3 ECD/Fc.
Sequence of cynomolgus LAG-3 ECD/Fc fusion protein (cynomolgus monkey) (chain, as listed by the source limits assumed, form in doubt): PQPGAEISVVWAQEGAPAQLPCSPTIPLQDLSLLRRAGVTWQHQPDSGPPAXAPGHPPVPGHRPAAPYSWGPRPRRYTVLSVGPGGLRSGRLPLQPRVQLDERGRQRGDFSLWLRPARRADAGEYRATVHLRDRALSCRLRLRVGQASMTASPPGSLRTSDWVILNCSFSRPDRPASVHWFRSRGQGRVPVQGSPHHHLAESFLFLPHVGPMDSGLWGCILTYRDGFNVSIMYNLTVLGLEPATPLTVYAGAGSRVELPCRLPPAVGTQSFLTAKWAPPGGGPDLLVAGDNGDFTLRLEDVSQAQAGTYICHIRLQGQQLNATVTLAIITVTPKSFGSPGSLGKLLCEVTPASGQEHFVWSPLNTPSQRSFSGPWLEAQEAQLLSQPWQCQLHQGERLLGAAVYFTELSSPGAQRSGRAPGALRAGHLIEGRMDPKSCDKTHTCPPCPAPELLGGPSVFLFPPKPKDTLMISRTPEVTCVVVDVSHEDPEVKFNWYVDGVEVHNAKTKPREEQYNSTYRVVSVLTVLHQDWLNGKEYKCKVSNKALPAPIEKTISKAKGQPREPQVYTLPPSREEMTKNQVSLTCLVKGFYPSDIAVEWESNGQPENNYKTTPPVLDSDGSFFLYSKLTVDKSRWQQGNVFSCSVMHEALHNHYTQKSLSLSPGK

B1: mAb746 (antibody, V domains shown)
VH: EVQLQQSGAELVRPGASVKLSCTASDFNIKDDYMHWVKQRPEQGLDWIGWIVPENGNTEYASKFQGKATITADTSSNTAYLQLSSLTSEDTAVYYCTVYGDYWGQGTTLTVSS
VL: DIQMTQSPSSLSASLGERVSLNCRASQEISGYLSWLQQKSDGTIKRLIYAASTLDSGVPKRFSGSRSGSDYSLTISSLESEDFADYYCLQYASYPLTFGAGTKLELK
B1: the EC50 (usually the concentration that produces a half-maximal response) was 210 pM.

B2: mAb747 (antibody, V domains shown)
VH: EVQLQQSGAELVRPGASVKLSCTASDFNIKDDYMHWVKQRPEQGLDWIGWIVPENGNTEYASKFQGKATITADTSSNTAYLQLSSLTSEDTAVYYCTVYGDYWGQGTTLTVSS
VL: DIQMTQSPSSLSASLGERVSLNCRASQEISGYLSWLQQKPDGTIKRLIYAASTLDSGVPKRFSGSRSGSDYSLTISSLESEDFAAYYCLQYASYPLTFGAGTKLELK
Turning to B2, the EC50 was found to be 340 pM.

B3: mAb750 (antibody, V domains shown)
VH: EVQLQQSGAELVRPGASVKLSCTPSGLNIKDDYIHWVKQRPEQGLEWIGWIDPENGDTEYASKFQGKATITADTSSNTAYLQLSSLTSEDSAVYYCCTADYRNWYWGQGTTLTVSS
VL: not shown
In turn, B3 registered an EC50 of 320 pM.

B4: mAb742 (antibody, V domains shown)
VH: QGQLQQSGAELVRPGASVTLSCKASGYTFNDYEMHWVKQTPVHGLEWIGAIDPETGGTAYNQKFKGKAILTADKSSSTAYMELRSLTSEDSAVYYCIRWGSTVFPYWGQGTLVTVS
VL: DGVLTQTPLSLPVNIGDQASISCKSTKSLLNSDGFTYLDWYLQKPGQSPQLLIYLVSNRFSGVPDRFSGSGSGTDFTLKISRVEAEDLGVYYCFQSNYLPWTFGGGTKLEIK
B4: the concentration giving a half-maximal response (EC50) is 320 pM.

B5: mAb744 (antibody, V domains shown)
VH: QVQLQQSGAELVRPGTSVTLSCKASGYTFTDYEMHWMKQTPVHGLEWIGAIDPATGGTAYNQKFKGKAILTADKSSSTAYMDFRSLTSEDSAVYYCIRWGTTVFPYWGQGTLVTVS
VL: DVVLTQTPLSLPVNIGDQASISCKSTKSLLNSDGFTYLDWYLQKPGQSPQLLIYLVSNRFSGVPDRFSGSGSGTDFTLKISRVEAEDLGVYYCFQSNYLPWTFGGGTKLEIK
In the case of B5, the half-maximal effective concentration (EC50) came out at 210 pM.

B6: mAb749 (antibody, V domains shown)
VH: EVQLQQSGAELVRPGASVKVSCTASDFNIKDDYVHWVKQRPEQGLEWIGWIDPENGDTEYASKFQGKATITADTSSNTAYLQLSSLTSEDTAVYFCSTWDAEENYWGQGTTLSVSS
VL: DIVLTQAAPSVPVTPGESVSISCRSSKSLLHSNGNTYLYWFLQRPGQSPQVLIYRMSNLASGVPVRFSGSGSGTAFTLRISRVEAEDVGVYYCMQHLEYPFTFGSGTKLEIK
Molecule B6 had a half-maximal effective concentration (EC50) of 330 pM. Compared with the last molecule, the EC50 is about 1.6-fold higher.

B7: mAb748 (antibody, V domains shown)
VH: EVQMQQSGAELVRPGASVKLSCTVSGFNIKDDYMHWVKQRPEQGLEWIGWIDPENGDTEYASKFQGKATITADTSSNTAYLQLNSLTSEDTAVYYCTYFDYWGQGTTLTVSS
VL: not shown
Consider B7, for which the EC50 is 250 pM. The EC50 values of the last two molecules are within 1.5-fold of each other.
